Data from patent US20240100176A1 (Eli Lilly, published 2024).

T1: human IL-4Rα on cells (human PBMC B cells and CD4+ T cells, Daudi cells, HEK-Blue IL-4/IL-13 cells, myeloid … (human, UniProt P24394 26-825))
T1 sequence: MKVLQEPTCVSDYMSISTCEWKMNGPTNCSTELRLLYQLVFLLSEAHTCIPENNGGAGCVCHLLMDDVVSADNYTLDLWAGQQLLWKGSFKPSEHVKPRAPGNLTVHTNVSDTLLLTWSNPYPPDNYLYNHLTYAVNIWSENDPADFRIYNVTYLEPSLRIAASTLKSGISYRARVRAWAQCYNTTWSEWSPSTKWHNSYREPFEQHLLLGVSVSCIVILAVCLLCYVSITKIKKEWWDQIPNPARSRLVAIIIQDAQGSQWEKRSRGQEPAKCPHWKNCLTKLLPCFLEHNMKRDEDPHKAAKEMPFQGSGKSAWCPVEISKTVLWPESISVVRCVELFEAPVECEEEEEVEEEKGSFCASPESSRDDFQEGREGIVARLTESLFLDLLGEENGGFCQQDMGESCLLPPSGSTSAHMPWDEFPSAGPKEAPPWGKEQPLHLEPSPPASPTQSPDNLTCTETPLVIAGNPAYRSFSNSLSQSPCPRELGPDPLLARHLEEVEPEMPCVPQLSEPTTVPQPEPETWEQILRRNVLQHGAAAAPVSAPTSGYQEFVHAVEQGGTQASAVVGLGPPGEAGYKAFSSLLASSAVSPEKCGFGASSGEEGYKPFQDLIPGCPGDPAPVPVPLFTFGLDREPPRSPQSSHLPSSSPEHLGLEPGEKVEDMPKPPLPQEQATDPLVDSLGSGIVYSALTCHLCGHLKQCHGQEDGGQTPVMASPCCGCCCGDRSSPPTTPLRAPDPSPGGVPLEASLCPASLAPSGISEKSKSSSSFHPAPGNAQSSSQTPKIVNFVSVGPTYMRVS


Key:
[1] = target: T2, hexahistidine tagged human IL-4Rα ECD T108R (human, UniProt P24394 26-232); test: capture ELISA: Ab1 on anti-human IgG Fc, His-tagged receptor at 0.04 µg/mL, anti-His HRP
T2 construct: also called D108R; not shown: hexahistidine tag

[2] = target: T1, human IL-4Rα on cells (human PBMC B …); test: cell-based or functional assay
[3] = target: T1, human IL-4Rα on cells (human PBMC B …); test: flow cytometry on human PBMCs, CD4-positive T cells, Alexa Fluor 647 labelled antibody, percent IL-4Rα positive cells
Experimental: Example 3b. Binding to B cells and T cells: Binding of the exemplified anti-human IL-4Rα antibodies to B cells and T cells was tested in a Fluorescence Activated Cell Sorting (FACS) assay. […] Freshly isolated cells PBMCs were resuspended at 2×10⁶ cells/mL and allowed to rest for 15 minutes at room temperature, then plated at 100 μL/well into a round bottom 96-well plate (COSTAR®) and washed with FACS buffer (PBS containing 2% fetal bovine serum from Corning®). Exemplified anti-human IL-4Rα antibodies and the respective control IgG antibodies conjugated to Alexa Fluor® 647 according to manufacturer's protocol (Thermo Fisher Scientific) were added to the wells at 66.67 nM and diluted 4-fold in duplicate. Equivalent volume of 2× antibody cocktail containing: Human TruStain FcX™. FITC anti-human CD3 Antibody, Alexa Fluor® 700 anti-human CD4 Antibody (all from Biolegend®) and CD20 Monoclonal Antibody (2H7), PerCP-Cyanine5.5 (Thermo Fisher Scientific) was then added to the wells. Cells were incubated at 4° C. for 30 minutes, washed twice with FACS buffer and resuspended in a final volume of 100 μL FACS buffer. Viability dye, Sytox™ blue (Thermo Fisher Scientific), was added and the samples were analyzed via a flow cytometer (LSRFortessa™ X-20; BD BIOSCIENCES). Data analysis was performed using FlowJo software and statistical analysis was performed using GraphPad Prism 9. […]

[4] = target: T3, hexahistidine tagged human IL-4Rα ECD A71R (human, UniProt P24394 26-232); test: capture ELISA: Ab1 on anti-human IgG Fc, His-tagged receptor at 0.04 µg/mL, anti-His HRP
T3 construct: not shown: hexahistidine tag
T3 sequence (P24394 26-232 A96R): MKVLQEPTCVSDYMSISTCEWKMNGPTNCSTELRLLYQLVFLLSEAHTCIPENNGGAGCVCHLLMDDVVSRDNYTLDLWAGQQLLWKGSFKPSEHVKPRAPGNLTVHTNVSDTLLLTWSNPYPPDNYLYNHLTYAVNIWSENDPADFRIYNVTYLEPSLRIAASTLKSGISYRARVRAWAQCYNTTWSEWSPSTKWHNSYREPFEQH
Description: (§1) Example 2d. […] Briefly, thirty surface amino acid residue substitutions were introduced individually into hexahistidine tagged human IL-4Rα extra cellular domain (ECD) as follows: K2D, E6R, K22D, P26R, T31R, F41A, L42G, L43G, E45R, E52R, G56R, D66R, A71R, Q82G, K87D, E94R, H107A, D108R, P124R, D125R, D143R, R148D, L155R, R160D, S164R, S168R, Q181R, P192R, K195D, or H197G. Each mutant protein having a single amino acid residue substitution as described above was transiently expressed in CHO cells and purified using standard immobilized metal affinity chromatography techniques. […] The plates were then washed 3 times with PBST and the exemplified human IL-4Rα antibody was added to the wells at a final concentration of 1 μg/mL in PBS-casein and incubated for 1 hour at room temperature. The plates were washed 3 times with PBST, the IL-4Rα mutant proteins were serially diluted 5-fold from 1 μg/mL for 3 points. in PBS-casein and added to the plate at 50 μL/well and incubated for 1 hour at room temperature. The plates were washed 3 times with PBST and a 1000-fold dilution of anti-histidine tag antibody HRP conjugate (R&D Systems, Cat. #MAB050H) in PBS-casein was added and incubated for 45 minutes at room temperature. The plates were washed 3 times, TMB substrate (Pierce, Cat. #34028) was added per manufacturer instructions, the reaction was quenched with H₂SO₄, and absorbance was read at 450 nm on an ELISA plate reader.

[5] = target: T4, hexahistidine tagged human IL-4Rα ECD S168R (human, UniProt P24394 26-232); test: as above
T4 construct: not shown: hexahistidine tag
Description: as §1

[6] = target: T5, hexahistidine tagged human IL-4Rα ECD K2D (human, UniProt P24394 26-232); test: as above
T5 construct: not shown: hexahistidine tag
T5 sequence (P24394 other isoform, or with tags, fused parts or gaps): as the sequence (P24394 26-232 A96R) above, with K2D, R71A counted along it
Description: as §1

[7] = target: T1, human IL-4Rα on cells (human PBMC B …); test: cell-based or functional assay; remark: listed apart in the source

ELISA (OD450) [1] | IL-4 IC50 (nM): inhibition of IL-4 induced SEAP activity in HEK-Blue IL-4R and IL-13R expressing cells [2] | IL-13 IC50 (nM): inhibition of IL-13 induced SEAP activity in HEK-Blue IL-4R and IL-13R expressing cells [2] | EC50 [3] | ELISA (OD450) [4] | ELISA (OD450) [5] | ELISA (OD450) [6] | Inhibition of IL-4 induced B cell proliferation, IC50 [7] | Binder
1.41 OD450 | 0.08 nM | 0.67 nM | 26.3 nM | 0.907 OD450 | 1.18 OD450 | 1.09 OD450 | – | anti-human IL-4Rα antibody Ab1 (antibody, human IgG4 S228P, kappa, human kappa light chain; also called anti-human IL-4Rα Ab1; unconjugated Ab1) heavy: QVQLVESGGGLVQPGGSLRLSCVASGFTFSHSSMNWVRQAPGKGLEWVSYISRATGAVYYADSVKGRFTISRDNAKNSLYLQMNSLRDEDTAVYYCAREPVFDYWGQGTLVTVSSASTKGPCVFPLAPCSRSTSESTAALGCLVKDYFPEPVTVSWNSGALTSGVHTFPAVLQSSGLYSLSSVVTVPSSSLGTKTYTCNVDHKPSNTKVDKRVESKYGPPCPPCPAPEFLGGPSVFLFPPKPKDTLMISRTPEVTCVVVDVSQEDPEVKFNWYVDGVEVHNAKTKPREEQFNSTYRVVSVLTVLHQDWLNGKEYKCKVSNKGLPSSIEKTISKAKGQPREPQVYTLPPSREEMTKNQVSLTCLVKGFYPSDICVEWESNGQPENNYKTTPPVLDSDGSFFLYSRLTVDKSRWQQGNVFSCSVMHEALHNHYTQKSLSLSLG light: DIQMTQSPSAMSASVGDRVTITCRASQDISNYLAWFQQKPGKVPTRLIYAASSLQSGVPSRFSGSGSGTEFTLTISSLQPEDFATYYCLQWSSYPRTFGQGTKVEIKRTVAAPSVFIFPPSDEQLKSGTASVVCLLNNFYPREAKVQWKVDNALQSGNSQESVTEQDSKDSTYSLSSTLTLSKADYEKHKVYACEVTHQGLSSPVTKSFNRGEC
– | – | – | – | – | – | – | 1.41 nM | anti-human IL-4Rα Ab1 GC conjugate of Example 1b (n=4) (antibody, human IgG4 S228P, kappa, glucocorticoid receptor agonist payload-linker (GC-L, Preparation 8) conjugated to the engineered cysteines at the 124 and 378 position of the heavy chain (EU numbering); n is 4 (average DAR 4.17 by RP-HPLC, 3.85 by TOF MS)) heavy: QVQLVESGGGLVQPGGSLRLSCVASGFTFSHSSMNWVRQAPGKGLEWVSYISRATGAVYYADSVKGRFTISRDNAKNSLYLQMNSLRDEDTAVYYCAREPVFDYWGQGTLVTVSSASTKGPCVFPLAPCSRSTSESTAALGCLVKDYFPEPVTVSWNSGALTSGVHTFPAVLQSSGLYSLSSVVTVPSSSLGTKTYTCNVDHKPSNTKVDKRVESKYGPPCPPCPAPEFLGGPSVFLFPPKPKDTLMISRTPEVTCVVVDVSQEDPEVKFNWYVDGVEVHNAKTKPREEQFNSTYRVVSVLTVLHQDWLNGKEYKCKVSNKGLPSSIEKTISKAKGQPREPQVYTLPPSREEMTKNQVSLTCLVKGFYPSDICVEWESNGQPENNYKTTPPVLDSDGSFFLYSRLTVDKSRWQQGNVFSCSVMHEALHNHYTQKSLSLSLG light: DIQMTQSPSAMSASVGDRVTITCRASQDISNYLAWFQQKPGKVPTRLIYAASSLQSGVPSRFSGSGSGTEFTLTISSLQPEDFATYYCLQWSSYPRTFGQGTKVEIKRTVAAPSVFIFPPSDEQLKSGTASVVCLLNNFYPREAKVQWKVDNALQSGNSQESVTEQDSKDSTYSLSSTLTLSKADYEKHKVYACEVTHQGLSSPVTKSFNRGEC
